The supplement of paper PMC10899765

Assays:
Details in all cases: 20 nM; 72 h
[1] = system: MCF10A; assay: 5+ nucleoli phenotype percent effect (relative to siNT 0% and siKIF11 100%); higher = more cells with five or more nucleoli
Description: (§1)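 After 72 h, cells were fixed and stained with Hoechst and anti-fibrillarin, and nucleoli per nucleus were counted with CellProfiler. Values are plate-adjusted percent effect for the one-nucleolus and 5+ nucleoli phenotypes, normalised to siNT (0%) and to the positive controls siNOL11 or siKIF11 (100%), as the mean of biological triplicates. Percent viability is the nuclei count relative to siNT.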

[2] = system: MCF10A; assay: percent viability (nuclei count relative to siNT); higher = more viable cells
Description: as §1

[3] = system: MCF10A; assay: one-nucleolus phenotype percent effect (relative to siNT 0% and siNOL11 100%); higher = more cells with one nucleolus (ribosome biogenesis inhibition)
Description: as §1

Sequence | 5+ nucleoli phenotype percent effect [1] [%] | percent viability [2] [%] | one-nucleolus phenotype percent effect [3] [%]
GGGAAGAGCUGUACGGCCUUC [hsa-miR-6077] | -35.5 | 37.4 | 32.5
GGUGGGGCAAUGGGAUCAGGU [hsa-miR-3151] | 9.32 | 33.9 | -3.87
CUGGGAGGUGUGAUAUCGUGGU [hsa-miR-3689a-3p] | 27.1 | 12.5 | 27.5
CUGUAUGCCCUCACCGCUCA [hsa-miR-675-3p] | -14.5 | 37.8 | 0.624
UUUCCUGUCCUCCAACCAGACC [hsa-miR-7152-5p] | -28.9 | 26.5 | 11.7
UUCCUGGGCUUCUCCUCUGUAG [hsa-miR-6783-3p] | 7.93 | 88.9 | -1.45
GCUGACUCCUAGUCCAGGGCUC [hsa-miR-345-5p] | 31.9 | 100 | -8.97
CCUGUUCUCCAUUACUUGGCUC [hsa-miR-26b-3p] | -23.3 | 63.1 | 7.43
GUGUUGAAACAAUCUCUACUG [hsa-miR-653] | 38.1 | 169 | -22.2
UAUGGAGUGGACUUUCAGCUGGC [hsa-miR-6514-5p] | 38.3 | 75 | -0.808
AUAUGUAUAUGUGACUGCUACU [hsa-miR-3924] | -20.9 | 32 | -20
UCUAAAGACUAGACUUCGCUAUG [hsa-miR-4744] | 32 | 106 | -22
CAUCUCUAAGGAACUCCCCCAA [hsa-miR-3675-3p] | 8.48 | 62 | 10.4
UAUACAAGGGCAGACUCUCUCU [hsa-miR-300] | -6.47 | 68.9 | -10.6
UCACAGUGAACCGGUCUCUUU [hsa-miR-128] | -27.9 | 81.7 | 12.2
GUACCUUCUGGUUCAGCUAGU [hsa-miR-4724-3p] | 19.8 | 82.8 | -22.1
AUUCUCUCUGGAUCCCAUGGAU [hsa-miR-4768-5p] | -2.49 | 22.6 | -12.2
CAGGGGCUGGGGUUUCAGGUUCU [hsa-miR-6813-5p] | -16.1 | 23.1 | -4.41
AACUGAACCAGGAGUGAGCUUCG [hsa-miR-4724-5p] | -1.37 | 77.9 | 6.7
UCACCCUGCAUCCCGCACCCAG [hsa-miR-3620-3p] | 11.8 | 77 | -11.9
GGAGACUGAUGAGUUCCCGGGA [hsa-miR-873-3p] | -5.61 | 106 | -6.55
GGCGGGUGCGGGGGUGG [hsa-miR-3656] | 37.2 | 148 | -15.8
AGGAAGCAAGAGAACCCUGUGG [hsa-miR-6828-5p] | -41.5 | 26.9 | 18.9

Sequence | 5+ nucleoli phenotype percent effect [1] [%] | percent viability [2] [%] | one-nucleolus phenotype percent effect [3] [%]
AUAUGGGUUUACUAGUUGGU [hsa-miR-3115] | -8.18 | 25 | 27.9
UAGGACUGUGCUUGGCACAUAG [hsa-miR-3169] | 20 | 27.4 | 1.07
CUGUGGGCUCAGCGCGUGGGG [hsa-miR-4322] | -30.6 | 31.3 | 28.2
AUAAAGCUAGAUAACCGAAAGU [hsa-miR-9-3p] | -46.1 | 44.1 | 48.4
UGCUUAACCUUGCCCUCGAAA [hsa-miR-4804-3p] | -30.7 | 49.2 | 20.5
CAAGUCUUAUUUGAGCACCUGUU [hsa-miR-1264] | 21.1 | 70 | -11.7
CAGGGGGACUGGGGGUGAGC [hsa-miR-6794-5p] | 7.3 | 50.1 | 5.76
GGCUCAUGUGUCUGUCCUCUUC [hsa-miR-6847-3p] | 1.91 | 44.2 | -18
ACUGAUUUCUUUUGGUGUUCAG [hsa-miR-29a-5p] | 23.5 | 134 | -23.9
CAGUGUUCAGAGAUGGA [hsa-miR-4255] | 68.6 | 148 | -51.8
UGAGGGAGGAGACUGCA [hsa-miR-4419a] | -18.8 | 7.9 | 18.6
CGCGCGGCCGUGCUCGGAGCAG [hsa-miR-4479] | -37.9 | 34.8 | 54.5
AGAGUCUUGUGAUGUCUUGC [hsa-miR-924] | -44.9 | 42.5 | 24.7
UAUGGUACUCCUUAAGCUAAC [hsa-miR-5579-5p] | 101 | 86.3 | -26.5
GAAGACUUCUUGGAUUACAGGGG [hsa-miR-8087] | -8.56 | 112 | 2.61
UUGGACAGAAAACACGCAGGAA [hsa-miR-4520a-3p] | -25 | 59.1 | -3.29
CGUGUAUUUGACAAGCUGAGUU [hsa-miR-223-5p] | -35 | 20 | 31.4
CAUCUUACUGGGCAGCAUUGGA [hsa-miR-200b-5p] | 0.989 | 73.7 | -11.1
UGCACCAUGGUUGUCUGAGCAUG [hsa-miR-767-5p] | 8.28 | 65.4 | -10.3
UGAGGCCCUUGGGGCACAGUGG [hsa-miR-5008-5p] | -8.69 | 22.9 | 6.37
UGUCUUUCUUCUCUCCCUUGCAG [hsa-miR-6830-3p] | -30.3 | 19.9 | 58
UCUCAGCUGCUGCCCUCUCCAG [hsa-miR-6787-3p] | 41.8 | 116 | -24.6
